The source of these data is publication PMC5364489, “Isolation and characterization of the E. coli membrane protein production strain Mutant56(DE3)”.

This data set has as its target wild-type T7 RNA polymerase (Enterobacteria phage T7 (gene from E. …, UniProt P00573 1-883)). Description: EMSA; 2.5 uM dsDNA; half-saturation compared only in figure, not a true Kd; 50 mM Tris acetate, 10 mM magnesium acetate, 50 mM sodium acetate (pH not stated), 25 °C, 30 min; 1.5% TAE agarose gel. The settings on record: protein: recombinant; label: 5' ATTO488 on strand 1; blunt.

wild-type T7 RNA polymerase (Enterobacteria phage T7, sequence (P00573 whole entry): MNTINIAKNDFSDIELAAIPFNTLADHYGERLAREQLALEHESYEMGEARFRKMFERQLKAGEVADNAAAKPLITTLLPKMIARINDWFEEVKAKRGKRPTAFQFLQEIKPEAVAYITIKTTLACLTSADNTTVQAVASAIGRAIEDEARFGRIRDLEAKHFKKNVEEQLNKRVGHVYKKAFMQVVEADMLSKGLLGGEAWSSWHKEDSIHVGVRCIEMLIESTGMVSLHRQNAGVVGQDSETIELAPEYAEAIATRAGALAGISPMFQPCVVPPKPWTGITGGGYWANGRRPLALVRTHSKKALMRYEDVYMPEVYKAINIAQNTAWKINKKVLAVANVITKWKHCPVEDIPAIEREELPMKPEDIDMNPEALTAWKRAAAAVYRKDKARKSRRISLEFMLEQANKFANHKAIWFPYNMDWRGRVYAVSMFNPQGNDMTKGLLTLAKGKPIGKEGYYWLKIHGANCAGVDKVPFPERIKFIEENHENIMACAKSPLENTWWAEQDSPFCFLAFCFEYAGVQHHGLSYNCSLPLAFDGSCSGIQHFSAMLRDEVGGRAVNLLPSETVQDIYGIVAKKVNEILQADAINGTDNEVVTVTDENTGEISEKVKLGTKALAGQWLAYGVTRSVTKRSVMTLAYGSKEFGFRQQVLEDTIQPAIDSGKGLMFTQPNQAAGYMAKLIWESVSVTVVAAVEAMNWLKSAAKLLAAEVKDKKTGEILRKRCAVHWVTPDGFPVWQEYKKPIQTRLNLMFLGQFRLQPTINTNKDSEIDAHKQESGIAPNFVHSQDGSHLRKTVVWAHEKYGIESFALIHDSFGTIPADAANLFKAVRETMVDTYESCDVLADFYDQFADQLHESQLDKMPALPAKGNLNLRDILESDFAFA

B1: T7 promoter dsDNA (dsDNA)
DNA 1: GCCAGTAATACGACTCACTATAGGG
DNA 2: CCCTATAGTGAGTCGTATTACTGGC
As for B1, the binding result is given as “binds”.
